Consider 19 sequences from the DeepSol protein solubility set.

The data set is described as follows: soluble on expression in E. coli; label from the status in PepcDB or PDB records.
As for “MSLTQHTLWLLRFTYKQLKEKLTVSDSKKLFHEQFPYVIPGLYKRIVDEMLVELNLLNHQNEFIQDDLFCVGLTETFKELTKGYKPEEHLRVLFESLCNSSNFEPKKIKEASKKTLEVYKDKSLKEISILLKQKSDSNLYSSRIMNLGIYLIIANATDFKDIKDPEKNKIISDIINKLNLSFNKAEKDIGIYKSSILKMEQAKELLQEAKIKDKKEKEGHHHHHH”, the “soluble on expression in E. coli” value is recorded as “not soluble”. Turning to “MRFKVSKLMAYILRHSPWEFGLEPDEEGFVSIEELVNAVRKVYPWVTEEYIREIVERDEKGRYEIRGNKIRARYGHSYPVILRHEEDKESKVLYHGTVRRNLKGIMREGIKPMKRQYVHLSINYEDAYNTGRRHGEDVVVLIIDAECLRNKGYKILKAGKKVRIVKHVPVDCISGILLEHHHHHH”, the “soluble on expression in E. coli” value is “not soluble”. The value for “MKNSVDRELPAELMTKLNYQGFESTEIGHPEIQRVAPKVHVSTGDNKVVDSVADVVKATVKDGMTISFHHHFRNGDFVFNQVMRAIIDAGIKDLTLAPSSLTGVMNDMVIEAIKAGTITNITSSGMRGSLGDFVSHGGLKNPVIFRSHGNRARAIEHGDIKIDVAFLGVPNADRLGNANGMAGKAVFGSLGYALMDAQYANQVVLLTDNIVAYPNTPASIKQTQVDYVVQVDQVGDPDKIGSGATRFTKDPKELKIAQTVNNVIVNSPYFKNGFSFQTGSGGAALAVTRYLRQAMLDNQIKASFALGGITKPTTDLLEEGLVDKVMDVQDFDKGAAASMHANPNQQEIDASWYADPDNKGAMVDQLDVAILSALEIDTHFNVNVMSGSDGVIRGAIGGHQDAATAKLTIISAPLVRGRLATIVPEVTTVVTPGDSIDVVVTEYGIAINPRRQDLVKALSHVPGVPVYMIEELQQLAEKKVGQPQPLEFTDRTVALIEYRDGTIIDTIKAVKDLEHHHHHH” was “not soluble”. As to “MKRVGKQTWVFDEDIYIRAAATAVGPLEADGPLGGYFDIWHRDLYCGEETWELAERRLMSEAVARCLQKAGVSAHDVDLFLAGDLLNQNATSNYVARELPIPFLCLFGACSTSMQTLAAAAAFVAGGLADTALVATSSHNATAERQFRYPTELGVQKPKTATFTVTGAGAALVGRTPGRWRIRAATIGKVIDAGLTNPLDMGAAMAPAAADTIEQHFRDLGTSPSDYDLIVTGDLSRVGSVIVRELLAESGYDISDVYNDCGLMIYRPDQKVFAGGSGCACSAVVTYGYLFHELDRGTFHRLFVVATGALLSQTMVQQKQSIPAVAHGVVIEAAKLEHHHHHH”, the “soluble on expression in E. coli” value is reported as “not soluble”.

Turning to “MSLYLIVGAYPSTPQVMKNIKMTSDALKKKESLICLNVLSKYNPEKHSNTSKRLPVKFFSGVLIVLMNTDNWASLEKRFSSEIANWRSGGNVICIAIGELGKFKGNDTYYLKTLQIALMNVDDNWIPADSSYELTMLNYLHKHERSFIKPLRYDASNNDVFPDFCLTDIGSTELFPIEVFGMDTASYLARKVIKESYYNERYGKDGWASWEAPAGPLPICPIRPAVNYQMLLEGHHHHHH”, the “soluble on expression in E. coli” value was “not soluble”. Turning to “MSLVERARLAEGGGWDCHFHVFDASRYTLAAGSAYQPEDASLAAFRGVCRARGIGRAVLVHPSVYGADHSSYEDALAANGDWLRGVAVVYPDEATTPDARIEHWDLLGTAGTRINRLFPGAPQHPERIVERVKPFGWHVQVLTDIVEDIGLVRRIAARDVPVVVDHFGHHPHAQLLRSAGWQDLIALVREGAAWVKLSAPYRVGAQGPAWPGAQALVDQLVQANPRQLVWGSDWPHPPDHRHPFPAPDQAAIGATIAQWLPDAQLRRQVMELNPLRLYGGTRAAGREGHHHHHH”, the “soluble on expression in E. coli” value is on record as “soluble”. The value for “MRLLDIWMRSAAALMLLSGAAFADVTVSQSNDPSVSLGGQLSALLGAERSALGTLPAQRLEQVAAAVARPEAKPEAPVKAVATKGNRGAKAADDAPAPRYDEAWLASQPATAKDSDEWKCLATALYFEARGESIQGQFAVAEVIMNRVDRPGYPGSICGVVRQGGQFSFMFDGKPETIREKAAFQRAGKIAALMLAGAPRQLTQGATHFHTRAVRPGWAHRFPRTAAIGAHLFYRQPGGS” was “not soluble”; that for “MEINTIIGNNLKKIRQEKKLTLDELAGITGVSKGMLSQIEKGTTNPTINTIWKISNGLNVPYTYLLEDDYVKENPVVKKTETVTQHSEDHSYRVFNYYSDNQERNFELFQFELDPGKKYQAVGHSKRSTEYVMVIQGALALEVGGQRYLLPKDAAMYFDANQVHTYINDGTEKVQAVVINYYT” was “not soluble”; that for “NILTDGAIKKLTLNKLFERYMSTRELKESTRANYLKTWENRVKDEIGNIKVIQILPSHIKSFYSKLSKAGYAYSTIKFINNMIYPALEMAVDDDIIRKNPAKFSISDYGRQAEERIALTVLQQEKMLEFVKNNQVYNTYYPMLRIMLGTGVRCGELIGLTWEDVDVRTKAVSIDHQLIYKDLGDGYKFHISTPKTDSGIRTIPMTSDVQRAFEEQKKLNFMLQKGKDVEIDGYKGFIFMAKSGRPLMPSAINNILYNIVDAYNKKEVQIAKTEHRNAELLPTVSAHIMRHTACTRMAEKRMDVKVLQYIMGHAHIDVTMDVYNHVSEMSRIESEITRLESVAIS” was “not soluble”.

Take “MSLDSPPIRVFVVEDQTKILKNQLRLFENHPEMDIIGTALSGEAALEEVPKLMPDVLLLDLGLPRMSGIDVTREVKARFPKIEILIFTIFDEEDKVLEAVKAGASGYLLKGAPVDKIIEAIKEVRAGGTVIQPNLARRLLRHFRVEPDASPLISPPAAPEPSASDLPQEPLLKPLSDREREILQLIAKGVSNSEAARLLDLSKATIRTHLEHIYRKLEVTNRVEAVTEGIRKGLISEGHHHHHH”: the “soluble on expression in E. coli” value is reported as “soluble”. The value for “MTKFDLNDSSVVVIVGSGAGGGTLGNELAQKGVKVVILEAGPRIENQDFINDEWESFSQLAWTDARTTSGTWRVAKDFSGLPAWIVKAVGGSTVHWAGASLRFDEHEFRVKSAYGNIPGANLLDWPVTLAEMEPWYAKAENKMGVTRTNGIPGLPGNNNFKVLEAGAKKLGYKTVHTGNMAINSQPRDGRGSCQQIGFCFQGCKSGAKWSTLYTEIPKGEATGNLEVRPSSMAVKIEHDAGGKVTGVVYADEAGAMQRQKARIVAVAGNSIESPRLLLNSASTMFPDGLANSSGQVGRNYMRHMTGSVYAVFEKSVHMYRGTTMAGIIRDEAANNPKRGFVGGYEMETLSIGLPFMAAFLNPGAWGRPFTSALDGYPRMAGMWLVGEDMPQETNRITLDPVVKDKFGQPVASVHFDDHPNDIAMRAHAYKQGAAVYDAVGATVTYPTPPYPSTHNLGTNRMSEKPRDGVVNKFGQSHDVKNLFVSDGSQFTSGAACNPTLTIVALAIRQADYIAGAMQKKEILEHHHHHH” was “not soluble”; that for “MGSDKIHHHHHHMAQQKDTKKITVFTSTYNRAYILPKLYESLKLQTCKDFEWLVVDDGSEDETSELFDKWLEEDVIEIAYFKKKNGGKHRAINFAASKAQGQLFFIVDSDDYLTLTAVEIICKEWEKVENKKQSAGLCFRKICYNTGKMIGADFPVSPIDASSLTICYKWKIYEDKAEVFKTELIRRFPFPEIEGEKFISEAIVWNKISVCDSPLLRCVNTGIYMCEYLPDGLTANFIKLMKRNPKGGILYYKSLFNLSCIRKNPIDILKISLRLSQCIIYSFLRCFGSYL” was “not soluble”. The value for “MSLRLIATEEAVTFQPVVDALRAHSRTDDASLDMILVRDVYGDEPARPAMIGRLSDVTGERLAEMDSNGVDMHLLSLTAPGVQMFDAETGTRLARIANDLMAQTVAANPTRFAGLGTFAPQDPASAAREIERVATQLRLNGLVINSHTNDLYYDDPFFHPVFEAIEASGLALYIHPRAPSKQIDRAFRDYGMNSAIWGYGIETSTNAVRMILSGLFDRFPRLKIVLGHMGEAIPFWLWRLDYMHGNATTFGGAPKLKLKPSEYFRRNFAITTSGVESHAALRYSIEVLGPENVMWAIDYPYQPMAPAVQFIRTAPIPEDVKAMVAGGNAARIFRITEGHHHHHH” was “soluble”; that for “GPHMASMLEAKFEEASLFKRIIDGFKDCVQLVNFQCKEDGIIAQAVDDSRVLLVSLEIGVEAFQEYRCDHPVTLGMDLTSLSKILRCGNNTDTLTLIADNTPDSIILLFEDTKKDRIAEYSLKLMDIDADFLKIEELQYDSTLSLPSSEFSKIVRDLSQLSDSINIMITKETIKFVADGDIGSGSVIIKPFVDMEHPETSIKLEMDQPVDLTFGAKYLLDIIKGSSLSDRVGIRLSSEAPALFQFDLKSGFLQFFLAPKFNDEGSNSQSNGSGALEAKFEEASLFKRIIDGFKDCVQLVNFQCKEDGIIAQAVDDSRVLLVSLEIGVEAFQEYRCDHPVTLGMDLTSLSKILRCGNNTDTLTLIADNTPDSIILLFEDTKKDRIAEYSLKLMDIDADFLKIEELQYDSTLSLPSSEFSKIVRDLSQLSDSINIMITKETIKFVADGDIGSGSVIIKPFVDMEHPETSIKLEMDQPVDLTFGAKYLLDIIKGSSLSDRVGIRLSSEAPALFQFDLKSGFLQFFLAPKFNDEGSNSQASNSGALEAKFEEASLFKRIIDGFKDCVQLVNFQCKEDGIIAQAVDDSRVLLVSLEIGVEAFQEYRCDHPVTLGMDLTSLSKILRCGNNTDTLTLIADNTPDSIILLFEDTKKDRIAEYSLKLMDIDADFLKIEELQYDSTLSLPSSEFSKIVRDLSQLSDSINIMITKETIKFVADGDIGSGSVIIKPFVDMEHPETSIKLEMDQPVDLTFGAKYLLDIIKGSSLSDRVGIRLSSEAPALFQFDLKSGFLQFFLAPKFNDEE” was “soluble”. As for “MVLILNGPNLNLLGRREPEVYGRTTLEELEALCEAWGAELGLGVVFRQTNYEGQLIEWVQQAHQEGFLAIVLNPGALTHYSYALLDAIRAQPLPVVEVHLTNLHAREEFRRHSVTAPACRGIVSGFGPLSYKLALVYLAETLEVGGEGF”, the “soluble on expression in E. coli” value was “soluble”. Take “MSAAAAPDTARSGRWRVDTDPERVERDLTCLVLTLVELVRQLVERQCVRRMDQGDLSDEQIETLGLTLMRLEEAMTELCERFDLSPSDLNLDLGPLGTLLPVD”: the “soluble on expression in E. coli” value is recorded as “not soluble”. In the case of “MIYIIQGGRAGNQLFSYAFAQRIRQIYGNEEICFVLSAIKNKAMDDCNGAYWEDSLKYFDVQDYSVSFEDNIVTKEGNLFQRFLYQFWRGSRKLNNIIFSLTGVEFSKFSLLLNRVVFNLISRFGLYIITHGFSESIKKTSFKNKFIYGSFEDNRWFSDIESKLRLEFKPKYNLNEKALQLYNELLNQNAICVSLRKWSIDVHDDSELEKREICDRNYYEKAINHIINTVEKPIFVVFSDDLEWASELMRSIIKDRYPLLVEKGDNNVAEKLFLMSTCKHFIIANSTFSWWAAYLGEFSDKIVVSPNIWFKSNKQFHPLILDDWIKINCQLEHHHHHH”, the “soluble on expression in E. coli” value is “not soluble”. The value for “SPLKFELCPGRMIGGNNPCFIIAEIGQNHQGDIEIAKKMIKMAKDCGADCAKFQKSELEYKFNKKALERPYTSKHSWGKTYGEHKRHLEFSHEQYRELQQYAKQVGIFFTASGMDEMAVEFLHELDVPFFKVGSGDTNNFPYLKKTAQKGRPMVVSSGMQSMETMQHVYKIVKEHNQNFCILQCTSAYPLEPEDVNLRVITEYQKEFPDIPIGYSGHESGINITVGAVALGAKVVERHVTLDKSWKGSDHAASLEPEELAELVRSIRIVERALGTGLKRMLPCEVPCHDKLGKSVVAKTSIPKGTELTLDMLAVKVAEPKGVAPEEIFQLVGKKVTTDVEEDESITEDVVDSYGKKAKA” was “soluble”; that for “MIVNDSVVIHASRDIAADAAGNISVTTADLKVSVMLRVADKPERATAQLVFRALSEVEAFKMRVADEVERLQHSFEQDFETRHRELDQEVARAAEDTIAHRLLERREYVNLRAIERNDDNIILRVTGGVWVGTELYLLFEIQNRDSTPYHLDRVRVVGAGEERAGAVAFEDRTYPEGGSMGSIASGQRGRGIVAVRNARQLAGQPVRLIVSEARERRAVSVGDIRWR” was “not soluble”.
